{"source": "patent US20260226440", "assay_in_all_cases": "cell_activity", "key": {"[1]": {"test_system": "Type V nuclease-mutMMLV RT fusion", "settings": "HEK293T"}, "[2]": {"test_system": "T1, Type V CRISPR nuclease (8218)", "T1 sequence": "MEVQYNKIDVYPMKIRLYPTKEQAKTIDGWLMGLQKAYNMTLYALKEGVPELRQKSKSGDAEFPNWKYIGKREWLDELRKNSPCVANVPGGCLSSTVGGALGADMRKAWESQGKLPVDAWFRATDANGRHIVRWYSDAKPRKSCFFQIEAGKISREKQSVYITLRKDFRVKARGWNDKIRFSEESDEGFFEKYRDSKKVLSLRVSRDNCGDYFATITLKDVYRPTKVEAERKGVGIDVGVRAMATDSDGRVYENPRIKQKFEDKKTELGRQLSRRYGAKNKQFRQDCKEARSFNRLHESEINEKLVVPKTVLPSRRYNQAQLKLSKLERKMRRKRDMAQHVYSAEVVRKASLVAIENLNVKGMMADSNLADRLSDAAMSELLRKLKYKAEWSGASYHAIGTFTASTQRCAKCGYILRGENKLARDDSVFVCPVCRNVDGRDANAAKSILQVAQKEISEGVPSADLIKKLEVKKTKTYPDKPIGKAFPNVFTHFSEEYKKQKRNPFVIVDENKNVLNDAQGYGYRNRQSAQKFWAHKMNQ", "settings": "indels in HEK293T; PAM 5'-TTTC-3'; reference"}, "[3]": {"target": "nuclease-RT fusion S205G S205G (numbering of SEQ ID NO: 1) (UniProt P03355)", "settings": "HEK293T; PAM TTTC; average ratio, EMX1 and VEGFA tested; RT editing ratio 1.654"}, "[4]": {"target": "nuclease-RT fusion D137G D137G (numbering of SEQ ID NO: 1) (UniProt P03355)", "settings": "HEK293T; PAM TTTC; average ratio, EMX1 and VEGFA tested; RT editing ratio 1.665"}, "[5]": {"target": "nuclease-RT fusion D125G D125G (numbering of SEQ ID NO: 1) (UniProt P03355)", "settings": "HEK293T; PAM TTTC; average ratio, EMX1 and VEGFA tested; RT editing ratio 1.436"}, "[6]": {"test_system": "nuclease-RT fusion A138R A138R (numbering of SEQ ID NO: 1)", "settings": "HEK293T; PAM TTTC; average ratio, EMX1 and VEGFA tested; RT editing ratio 1.266"}, "[7]": {"test_system": "nuclease-RT fusion D137R D137R (numbering of SEQ ID NO: 1)", "settings": "HEK293T; PAM TTTC; average ratio, EMX1 and VEGFA tested; RT editing ratio 1.392"}, "[8]": {"test_system": "nuclease-RT fusion R250G R250G (numbering of SEQ ID NO: 1)", "settings": "HEK293T; PAM TTTC; loss of activity; average ratio, EMX1 and VEGFA tested; RT editing ratio 0.022"}, "[9]": {"target": "nuclease-RT fusion D237G D237G (numbering of SEQ ID NO: 1) (UniProt P03355)", "settings": "HEK293T; PAM TTTC; loss of activity; average ratio, EMX1 and VEGFA tested; RT editing ratio 0.038"}, "[10]": {"target": "nuclease-RT fusion N127R N127R (numbering of SEQ ID NO: 1) (UniProt P03355)", "settings": "HEK293T; PAM TTTC; average ratio, EMX1 and VEGFA tested; RT editing ratio 1.507"}, "[11]": {"target": "nuclease-RT fusion S136G S136G (numbering of SEQ ID NO: 1) (UniProt P03355)", "settings": "HEK293T; PAM TTTC; average ratio, EMX1 and VEGFA tested; RT editing ratio 1.907"}, "[12]": {"test_system": "nuclease-RT fusion E328R E328R (numbering of SEQ ID NO: 1)", "settings": "HEK293T; PAM TTTC; loss of activity; average ratio, EMX1 and VEGFA tested; RT editing ratio 0.173"}}, "data": [{"sequence": "CACCGCCGUCAUCAACAUUGCCUUUCUGUUGCCCAGUAAACUUAUCAUACGGAGCCAGGCUAUAUAAUUAGCUACUUCUCGUGAGGUGCAGCCACGAGGUGCGAAAGUACGCCGCAAUGUGCGGAAUUCGCACGAAAGUUGGCGGAUUUCUUCGGAAAUCGAGCCAAUAACCAUCUCCAUAAAUAUGUGUGGUGAUGGACUGCAAGUGUUGCCCUCAUAACUUAUCUUUUUUGCG / TGTTGCCCTCATAACTTATC / GATAAGTTATGAGGGCAACA", "values": [{"measurement": "activity", "setting": "[1]; PAM TTTC, precise editing 0.249%", "result": 14.6, "unit": "% indel"}]}, {"sequence": "CACCGUGUCAGGCCUGCUAGUCAGCCACAGUUUGGGGAAAGCUGUGCAGCCUGUAACCCCCCCAGGAGAAGCUGGGAAAAACCGUCAUCAACAUUGCCUUUCUGUUGCCCAGUAAACUUAUCAUACGGAGCCAGGCUAUAUAAUUAGCUACUUCUCCGUGAGGUGCAGCCACGAGGUGCGAAAGUACGCCGCAAUGUGCGGAAUUCGCACGAAAGUUGGCGGAUUUCUUCGGAAAUCGAGCCAAUAAGCAUAUCCAUAUUAUCUGCGGAUGGAUGUGCACUGCAAGUGUUGCCCUCAUAACUUAUCUUUUUUGCG / TGTTGCCCTCATAACTTATC / GATAAGTTATGAGGGCAACA [sgRNA_C16_xrRNA_EMX1_TTTC editing template RNA ; EMX1 target]", "values": [{"measurement": "activity", "setting": "[1]; PAM TTTC, precise editing 1.678%", "result": 10.7, "unit": "% indel"}]}, {"sequence": "CACCGUGUCAGGCCUGCUAGUCAGCCACAGUUUGGGGAAAGCUGUGCAGCCUGUAACCCCCCCAGGAGAAGCUGGGAAAAAUGAGGAUGUAGUCACGGAUUCAUUAUCAGGUUCUGGCUGCAGGGUGCCUGAUCUGUGCCAGGGUUAAGCAUGCUGGUGAGGUGCAGCCACGAGGUGCGAAAGUACGCCGCAAUGUGCGGAAUUCGCACGAAAGUUGGCGGAUUUCUUCGGAAAUCGAGCCAAUAACCAUCUCCAUAAAUAUGUGUGGUGAUGGACUGCAAGAUUAUCAGCAAGUGGCUGCAUUUUUUGCG / ATTATCAGCAAGTGGCTGCA / TGCAGCCACTTGCTGATAAT", "values": [{"measurement": "activity", "setting": "[1]; PAM ATTC (inferred from RTT), precise editing 1.993%", "result": 7.64, "unit": "% indel"}]}, {"sequence": "GUGAGGUGCAGCCACGAGGUGCGAAUAGGAAGUACGCAGCAAUGUGCUGAAUCGUUCGCACGAAAAUUGGCAUUUUUGAAAACCAAAGCCAAUAAUCAUAUCCAUAAAUAUGUGUGGUUAUGAACUGCAAGUGUUGCCCUCAUAACUUAUC / TGTTGCCCTCATAACTTATC / GATAAGTTATGAGGGCAACA [parent sgRNA EMX1 ; EMX1 target]", "values": [{"measurement": "activity (relative to parent)", "setting": "[2]", "result": 1}]}, {"sequence": "UGUCAGGCCUGCUAGUCAGCCACAGUUUGGGGAAAGCUGUGCAGCCUGUAACCCCCCCAGGAGAAGCUGGGAAAAACCGUCAUCAACAUUGCCUUUCUGUUGCCCAGUAAACUUAUCAUACGGAGCCAGGCUAUAUAAUUAGCUACUUCUCCGUGAGGUGCAGCCACGAGGUGCGAAAGUACGCAGCAAUGUGCUGAAUUCGCACGAAAGUUGGCGGAUUUCUUCGGAAAUCGAGCCAAUAAUCAUAUCCAUAUUAUCUGCGGAUGGAUGUGAACUGCAAGUGUUGCCCUCAUAACUUAUC / TGTTGCCCTCATAACTTATC / GATAAGTTATGAGGGCAACA [Table 7 editing template RNA 1 (EMX1) ; EMX1 target]", "values": [{"measurement": "indel ratio to WT (indel ratio to WT)", "setting": "[3]", "result": 2.53}, {"measurement": "indel ratio to WT (indel ratio to WT)", "setting": "[4]", "result": 2.8}, {"measurement": "indel ratio to WT (indel ratio to WT)", "setting": "[5]", "result": 2.83}, {"measurement": "indel ratio to WT (indel ratio to WT)", "setting": "[6]", "result": 2.77}, {"measurement": "indel ratio to WT (indel ratio to WT)", "setting": "[7]", "result": 2.13}, {"measurement": "indel ratio to WT (indel ratio to WT)", "setting": "[8]", "result": 0.00013}, {"measurement": "indel ratio to WT (indel ratio to WT)", "setting": "[9]", "result": 0.00343}, {"measurement": "indel ratio to WT (indel ratio to WT)", "setting": "[10]", "result": 2.7}, {"measurement": "indel ratio to WT (indel ratio to WT)", "setting": "[11]", "result": 3.18}, {"measurement": "indel ratio to WT (indel ratio to WT)", "setting": "[12]", "result": 0.0299}]}]}
